Source: the DeepSol protein solubility set

Experiment: soluble on expression in E. coli; label from the status in PepcDB or PDB records

Sequence	soluble on expression in E. coli
MTWLDEKGRFAIYEAPQNCPYLGTIGACYEFGSLPVILMFPELEKSFLKLLIRHIREDGYVPHDLGYHSLDSPIDGTTSPPRWKDMNPSLILLVYRYFKFTNDIEFLKEVYPILVKVMDWELRQCKGNLPFMEGEMDNAFDATIIKGHDSYTSSLFIGSLIAMREIAKLVGDSNYVDFISEKLSSAREAFRRMFNGRYFKAWDSVDNASFLAQLYGEWFTTLVGLEDIVEEDIIKKALESIIRLNGNASPHCVPNLVDDNGKIVGLSVQTYSSWPRMVFAICWLAYKKGVGDLSFCKKEWDNLVKNGMVWDQPSRINGYNGKAEMNYLDHYIGSPSPWSFLFLEHHHHHH	not soluble
MAIGVQKKTSTPLDVGTEQEPTNLEKTIGTLRRCLQIAGTSNKPGSRSAKNSISEESNDLTMEESVPEASKWPHCQHMISQDEAPRNDELASPNIRIVAYKDESQINDIMRLITKDLSEPYSIYTYRYFLHNWPEYCFLAYDQTNNTYIGAVLCKLELDMYGRCKGYLAMLAVDESCRRLGIGTRLVRRALDAMQSKGCDEIVLETEVSNKNAQRLYSNLGFIRQKRLLKYYLNGGDAFRLKLIFTSRRVRSLNNQENYQPRCRVNEDDTPDEEEGTY	not soluble
MSLNSPIQAVIFDWAGTIVDFGSFAPTSIFVEAFKQGFDFEISLAEAREPMGLGKWQHIEAVGKLPTVAQRWQKQFGRPMQASDIDAIYAAFMPLQIAKVADHAAPIPHSLEVVEQIRSRGIKIGSCSGYPRQVMDVLIAAAADYGYRPDYVVATDDLAQGGRPAPFMALKNVIELGVTDVRACVKVDDALPGIEEGHNAGMWTVGLLLSGNEAGLTLEEYQHADDQTLQAARERAQAKLQQAKPHYLIDTVADLPAVLAQIEQRLLAGEREGHHHHHH	soluble
MYAKSLNGDAFSNEAKQKAIELIKQDLGQIDLVVYSLASPVRKMPDTGELVRSALKPIGETYTSTAVDTNKDVIIEASVEPATEQEIADTVTVMGGQDWELWIQALEEAGVLAEGCKTVAYSYIGTELTWPIYWDGALGRAKMDLDRAATALNEKLAAKGGTANVAVLKSVVTQASSAIPVMPLYIAMVFKKMREQGVHEGCMEQIYRMFSQRLYKEDGSAPEVDDHNRLRLDDWELRDDIQQHCRDLWPQITTENLRELTDYDMYKEEFIKLFGFGIEGIDYDADVNPEVEFDVIDIE	not soluble
MEEINTKEVAQRITTELKRYSIPQAIFAQRVLCRSQGTLSDLLRNPKPWSKLKSGRETFRRMWKWLQEPEFQRMSALRLAACKRKEQEHGKDRGNTPKKPRLVFTDVQRRTLHAIFKENKRPSKELQITISQQLGLELSTVSNFFMNARRRSLDKWLEHHHHHH	soluble
MSLSLQQIDQIISILNKQSKPYDWVMQEFAKVEELKNFDLDLETFELLGLGLTLNKDNIFTLKTRTTKIKDEIFCIVDIESTGGVSKGEILEIGAVKIQNSKEIGRFQSFVKVKEIPKNITELTGITYEMVENASSLAKVLSDFRLFLKDSIFVAHNVRFDYSFISKALNECGFGILLNRRICTIEFAQCCIESPKYKLEVLKEFLGVENMHHRALDDALAAAEIFKYCLGKLPYHIKTTEELINFTKTARIKEGHHHHHH	soluble
MGSDKIHHHHHHMAKFDLTTPWGRFKTYLHYLWNDHAYLRLGFSNAHWISPELVRANQPWPFQLAWWKKRGIKTIVNLRGGFDGSFYALEKDACERLGLNFVDFVITSREVPIRERVRGAKELFERIEYPALMHCKSGADRAGIMSVFYAHYRLGQPIREAMQQLGPRYLHIKHGNTGVLDYVFEQYLEKGEPKGLTFSDWVESDDYDPVEMKKTFRAGMLGKVLTDKILRRE	not soluble
MTNLFVRSGISFVDRSEVLTHIGNEMLAKGVVHDTWPQALIAREAEFPTGIMLEQHAIAIPHCEAIHAKSSAIYLLRPTNKVHFQQADDDNDVAVSLVIALIVENPQQQLKLLRCLFGKLQQPDIVETLITLPETQLKEYFTKYVLDSDE	soluble
MRLCSVALLLFTVAYVKSAIDINVPSTLYIKEGDTGTIGLPVSANYRREVHNPKGTMDEQLYRVCNGKNKTTCGFWEDVKTKKKVKSGVTTYNKNKKALVIKKMLVSDFGNYMTGNKKKSRYVQQLVSLGK	not soluble
MGSDKIHHHHHHMIKIAIVGFGTVGQGVAELLIRKREEIEKAIGEFKVTAVADSKSSISGDFSLVEALRMKRETGMLRDDAKAIEVVRSADYDVLIEASVTRVDGGEGVNYIREALKRGKHVVTSNKGPLVAEFHGLMSLAERNGVRLMYEATVGGAMPVVKLAKRYLALCEIESVKGIFNGTCNYILSRMEEERLPYEHILKEAQELGYAEADPSYDVEGIDAALKLVIIANTIGVKASYEDVEVTGITQITPEAFQVAAEKGYTIRLIAEVSREKLKVSPRLVPFHHPLAIKGTMNAAMFKTDTAGSIFVAGRGAGKEETASAILSDLYEIYAGPR	not soluble
MKQNKLHYTTMIMTQFPDISIQSVESLGEGFRNYAILVNGDWVFRFPKSQQGADELNKEIQLLPLLVGCVKVNIPQYVYIGKRSDGNPFVGYRKVQGQILGEDGMAVFPDDAKDRLALQLAEFMNELSAFPVETAISAGVPVTNLKNKILLLSEAVEDQVFPLLDESLRDYLTLRFQSYMTHPVYTRYTPRLIHGDLSPDHFLTNLNSRQTPLTGIIDFGDAAISDPDYDYVYLLEDCGELFTRQVMAYRGEVDLDTHIRKVSLFVTFDQVSYLLEGLRARDQDWISEGLELLEEDKANNFGANSA	not soluble
MSNLKQLRTRIKSVKSTQKITKAMQLVSASKMAKIKSQIANSNFYIEAVSKMMSAILSIDMYELSIEEQKFFNTVPNKANLLIVMTSQRGLCGTFNYSIIKQVKNDIKELENKGEQIKLIIIGKKGYEALKRQYVNYIDSYFELPKIHDENLMLQVKQKIMSAVENLEVSNCVIYFNKFKNAMTQIMTRQQILPVAKYQDDSMIDNPIVNLVGFGYKERGVKPINNRRATSDIVGESKSIDYNYEYEGESLISNLINLYVNSQINYALLQSRASEEGARMTAMENATNNANDLISKLVLKLNRSRQAIITTELIEIIAGSEVV	not soluble
MKNELICYKQMPVWTKDNLPQMFQEKHNTKVGTWGKLTVLKGKLKFYELTENGDVIAEHIFTPESHIPFVEPQAWHRVEALSDDLECTLGFYCKKEDYFSKKYNTTAIHGDVVDAAKIISPCKVLDLGCGQGRNSLYLSLLGYDVTSWDHNENSIAFLNETKEKENLNISTALYDINAANIQENYDFIVSTVVFMFLNRERVPSIIKNMKEHTNVGGYNLIVAAMSTDDVPCPLPFSFTFAENELKEYYKDWEFLEYNENMGELHKTDENGNRIKMKFATMLARKK	soluble
MGSDKIHHHHHHMDVAAEYPVDKPDTQVSVRDVFGIESDLTVPAFTEVSEHVPDRDDAYCFDRDTTLAVLAGFAFNRRVMIQGYHGTGKSTHIEQIASRLNWPCIRVNLDSHVSRIDLVGKDAIVLRDGLQVTEFREGILPWCLQRPIALTFDEYDAGRADVMFVIQRVLEVEGRLTLLDQNKVIRPHPYFRLFATANTVGLGDTTGLYHGTQQINQGQMDRWNIVATLNYLEHDVEVGIALAKRPEYDTPEGRAKINAMVGVADLSRSGFINGDISTVMSPRTVLTWAENATIFGDDAFAFRVTFLNKCDETERPIIAEYYQRCFGKELPESAAFRTAFL	not soluble
MDESNVSQELLNSNRTEIARCVLLKDLVVMYGGYEVYANHVDLLMCFHQLMIVLAAPPIKPMQKEPGTLLPPRAVVYKLPAIKGSMKDAFSAHKLLKKSYAKPIVDISSTSGDSDPEWWSDRELTPDLNLKRELLLKKARFSRKTFDKRSSYIAHFKKSHLENYLNSDSDTVSNEKPKTLAQLKNFSKSNLVEYHPSMYRDVGVVIIFFSIYYYDLNSFKVNSEIEKQDKIFQEYKKWIFQSVQERRFVSKECTEPKVLSQLHVHVHQN	not soluble
MSGFLEQRLGHCLRQMAEKGLEALLVTHLTNSYYLTGFSGTAATVLITAKRRVLITDSRYTLLAKASVEGFDIIESRTPLKVVAELLEADQIDCLGFEDQVSFSFYQAMQAELSGITLLAQSGFVEHLR	soluble
MMTVAAEIRGSNPEKLLAPVLSAFWDEDESWTLDVYRRHEGYEGLRKALAMAPDDLIAYVKESGLRGRGGAGFPTGMKWQFIPQGDGKPHYLVVNADESEPGTCKDIPLLFANPHSLIEGIVIACYAIRSSHAFIYLRGEVVPVLRRLHEAVREAYAAGFLGENILGSGLDLTLTVHAGAGAYICGEETALLDSLEGRRGQPRLRPPFPAVAGLYACPTVVNNVESIASVPAILNKGKDWFRSMGSEKSPGFTLYSLSGHVAGPGQYEAPLGITLRQLLDMSGGMRPGHRLKFWTPGGSSTPMFTDEHLDVPLDYEGVGAAGSMLGTKALQCFDETTCVVRAVTRWTEFYAHESCGKCTPCREGTYWLVQLLRDIEAGKGQMSDLDKLNDIADNINGKSFCALGDGAASPIFSSLKYFREEYEEHITGRGCPFDPAKSTAWADRTEVKALEHHHHHH	not soluble
VAIRNFDISKISGEWYSIFLASDVKEKIEENGSMRVFVDVIRALDNSSLYAEYQTKVNGECTEFPMVFDKTEEDGVYSLNYDGYNVFRISEFENDEHIILYLVNFDKDRPFQLFEFYAREPDVSPEIKEEFVKIVQKRGIVKENIIDLTKIDRCFQLRG	soluble
MGSDKIHHHHHHMNKNEIANLKMQGFILQNDGKHFALRIKTDAGCMDSEKIDKLSEISKKYGRNYISFTVRLCVEIPWINYEDIPKIKEELKNLSLISGGTGNTVRPLVACKGTVCTHGLIDSQKICNELDSLFFGKKLPHKFKIGISGCPNNCAKAQLNDIGIIGQRIPKINEENCNGCTLCLKSCSVDAITIVDKKAVIDYEKCVNCGKCGKSCKRKCISLKDGVLISVGGKFGKKYKIGENIGIYDAPNLEKIVSEIMDYFKENADSHERFGDTIDRTGISSLKEKLKDY	not soluble
MVAENQPGHIDQIKQTNAGAVYRLIDQLGPVSRIDLSRLAQLAPASITKIVREMLEAHLVQELEIKEAGNRGRPAVGLVVETEAWHYLSLRISRGEIFLALRDLSSKLVVEESQELALKDDSPLLDRIISHIDQFFIRHQKKLERLTSIAITLPGIIDTENGIVHRMPFYEDVKEMPLGEALEQHTGVPVYIQHDISAWTMAEALFGASRGARDVIQVVIDHNVGAGVITDGHLLHAGSSSLVEIGHTQVDPYGKRCYCGNHGCLETIASVDSILELAQLRLNQSMSSMLHGQPLTVDSLCQAALRGDLLAKDIITGVGAHVGRILAIMVNLFNPQKILIGSPLSKAADILFPVISDSIRQQALPAYSQHISVESTQFSNQGTMAGAALVKDAMYNGSLLIRLLQG	soluble
MIMSKIKLTKNDLKKQKDELKMFKRYLPTLQLKKQQLYMEIVKIENSYKIKNLEQQKLKENISNWISLFSEKFPFESWIQVKTVVKKSLNIAGVAIPIFDSIEYEDIRHDLLFTPYWVDKGIEILKVVIQIDVELKILKKQIDLLLREFRITSQRVNLFEKVMIPTAKANIKKINIYLGDQQTAAVVRGKIAKSSLIKKNRNSLLEHHHHHH	not soluble
GPGSMSAHDSSAMALIAHMNDIEQQRRVLSMSQREQEAKIAFTTAEKEQLVQAAKAAEAEEAQLKDDLEVLATEQQQLELQKMEATDRLRRTQAEEALHTAAVEADLQALAKEKVLWHERAQDLESLRRSWEEDAATSSCIAALRQESEMLAPLKAEKTAVEDALAETMAAIEKVRAEQQARLTCLGSVGAPADAVQRSGLARALASMHGSALSDGNTATVDDDDTAAALEEEIKRADYEAAQVTARHGRTIAVLQREVDALSTRAGELQQLLSSIGASWQEVLSRTRDLQHCKETGLCRRCLT	soluble
